In paper doi:10.1101/2024.05.06.590709 (bioRxiv, 2024):

Columns and labels:
SEC-MALS = biological target: the molecule itself; assay: SEC-MALS
mass photometry = biological target: the molecule itself; assay: mass photometry

B1: NIT1 WT (purified recombinant AtNIT1) (enzyme)
chain: MSSTKDMSTVQNATPFNGVAPSTTVRVTIVQSSTVYNDTPATIDKAEKYIVEAASKGAELVLFPEGFIGGYPRGFRFGLAVGVHNEEGRDEFRKYHASAIHVPGPEVARLADVARKNHVYLVMGAIEKEGYTLYCTVLFFSPQGQFLGKHRKLMPTSLERCIWGQGDGSTIPVYDTPIGKLGAAICWENRMPLYRTALYAKGIELYCAPTADGSKEWQSSMLHIAIEGGCFVLSACQFCQRKHFPDHPDYLFTDWYDDKEHDSIVSQGGSVIISPLGQVLAGPNFESEGLVTADIDLGDIARAKLYFDSVGHYSRPDVLHLTVNEHPRKSVTFVTKVEKAEDDSNK
modifications: RED-NHS 2nd Generation dye (in the MST only)
SEC-MALS
  stoichiometry N: 20
Mass photometry
  stoichiometry N: ≤ 10
